System: Escherichia coli TOP10
Experiment: shrunken log2 fold change of peptide-encoding DNA abundance (4.5 h post-induction vs induction); higher = less antimicrobial activity (less host growth inhibition)
Details: time post-induction: 4.5 h; library: site-saturation at positions 5, 18, 19, 20
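Note: peptides expressed intracellularly from a pBAD plasmid library in pooled LB shake-flask culture, induced with 0.3% L-arabinose, DNA abundance read by NGS, three biological replicates, DESeq2 with apeglm shrinkage.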

Sequence | shrunken log2 fold change
RRIRARPPRLPRPRPRPLVLPRP | 0.157
RRIRERPPRLPRPRPRPNMSPRP | -0.179
RRIRWRPPRLPRPRPRPMWAPRP | 0.385
RRIRNRPPRLPRPRPRPCRSPRP | -0.0607
RRIRRRPPRLPRPRPRPYVNPRP | -0.0793
RRIRGRPPRLPRPRPRPSIRPRP | 0.417
RRIRWRPPRLPRPRPRPWTQPRP | 0.272
RRIRWRPPRLPRPRPRPAMMPRP | 0.306
RRIRDRPPRLPRPRPRPQATPRP | 0.403
RRIRVRPPRLPRPRPRPKNTPRP | -0.347
RRIRGRPPRLPRPRPRPQNDPRP | 0.128
RRIRLRPPRLPRPRPRPASFPRP | -0.0339
RRIRMRPPRLPRPRPRPWTPPRP | 0.28
RRIRERPPRLPRPRPRPAKDPRP | -0.284
RRIRSRPPRLPRPRPRPLQYPRP | -0.221
RRIRVRPPRLPRPRPRPPIPPRP | 0.242
RRIRKRPPRLPRPRPRPFYYPRP | -0.587
RRIRERPPRLPRPRPRPPYQPRP | -0.1
RRIRMRPPRLPRPRPRPEQEPRP | 0.033
RRIRSRPPRLPRPRPRPLQEPRP | 0.144
RRIRIRPPRLPRPRPRPFWQPRP | -0.31
RRIRDRPPRLPRPRPRPECMPRP | 1.07
RRIRIRPPRLPRPRPRPHIDPRP | -0.0031
RRIRHRPPRLPRPRPRPIEDPRP | 0.0058
RRIRMRPPRLPRPRPRPRLQPRP | 0.417

Sequence | shrunken log2 fold change
RRIRIRPPRLPRPRPRPSAFPRP | -0.15
RRIRQRPPRLPRPRPRPRPAPRP | 0.185
RRIRHRPPRLPRPRPRPKMNPRP | -0.487
RRIRTRPPRLPRPRPRPHLCPRP | -0.17
RRIRPRPPRLPRPRPRPDWDPRP | 0.00947
RRIRVRPPRLPRPRPRPNCTPRP | -0.0535
RRIRARPPRLPRPRPRPPIDPRP | 0.647
RRIRSRPPRLPRPRPRPQWQPRP | 0.0358
RRIRCRPPRLPRPRPRPTMMPRP | -0.0339
RRIRNRPPRLPRPRPRPLGDPRP | 0.218
RRIRERPPRLPRPRPRPGNPPRP | 0.00298
RRIRWRPPRLPRPRPRPCFNPRP | -0.382
RRIRYRPPRLPRPRPRPFWAPRP | -0.306
RRIRPRPPRLPRPRPRPNKEPRP | -0.406
RRIRVRPPRLPRPRPRPCKLPRP | -0.453
RRIRCRPPRLPRPRPRPFCEPRP | 0.000102
RRIRYRPPRLPRPRPRPNADPRP | -0.0823
RRIRFRPPRLPRPRPRPELGPRP | 0.144
RRIRTRPPRLPRPRPRPALAPRP | 0.425
RRIRYRPPRLPRPRPRPVLGPRP | 0.0727
RRIRQRPPRLPRPRPRPRHQPRP | -0.00749
RRIRRRPPRLPRPRPRPDPHPRP | 0.296
RRIRDRPPRLPRPRPRPMRAPRP | 0.953
RRIRKRPPRLPRPRPRPYEEPRP | -0.0817
RRIRGRPPRLPRPRPRPELRPRP | 1.71

Sequence | shrunken log2 fold change
RRIRGRPPRLPRPRPRPCPHPRP | 0.205
RRIRIRPPRLPRPRPRPGYMPRP | -0.442
RRIRWRPPRLPRPRPRPMSQPRP | 0.0791
RRIRQRPPRLPRPRPRPVPIPRP | -0.0341
RRIRHRPPRLPRPRPRPFSTPRP | -0.304
RRIRTRPPRLPRPRPRPGLTPRP | -0.0361
RRIRLRPPRLPRPRPRPWGHPRP | 0.105
RRIRHRPPRLPRPRPRPTGCPRP | -0.0228
RRIRDRPPRLPRPRPRPMGMPRP | -0.069
RRIRIRPPRLPRPRPRPERCPRP | 0.296
RRIRVRPPRLPRPRPRPAIQPRP | -0.0625
RRIRNRPPRLPRPRPRPRWQPRP | -0.00911
RRIRDRPPRLPRPRPRPLKAPRP | -0.214
RRIRPRPPRLPRPRPRPVKCPRP | -0.0701
RRIRQRPPRLPRPRPRPEEPPRP | 0.0685
RRIRMRPPRLPRPRPRPMMHPRP | -0.0538
RRIRIRPPRLPRPRPRPYLYPRP | -0.544
RRIRCRPPRLPRPRPRPSGEPRP | 0.299
RRIRSRPPRLPRPRPRPQKQPRP | -0.122
RRIRTRPPRLPRPRPRPMPRPRP | 0.175
RRIRYRPPRLPRPRPRPWFNPRP | -0.0994
RRIRCRPPRLPRPRPRPCGKPRP | -0.0972
RRIRYRPPRLPRPRPRPSDEPRP | -0.0199
RRIRKRPPRLPRPRPRPLDVPRP | 0.0117
RRIRVRPPRLPRPRPRPENHPRP | -0.187

Sequence | shrunken log2 fold change
RRIRNRPPRLPRPRPRPHNDPRP | -0.395
RRIRWRPPRLPRPRPRPGLSPRP | -0.0318
RRIRGRPPRLPRPRPRPKCQPRP | 0.581
RRIRVRPPRLPRPRPRPRVPPRP | -0.00723
RRIRRRPPRLPRPRPRPHMHPRP | -0.083
RRIRKRPPRLPRPRPRPCHVPRP | -0.203
RRIRHRPPRLPRPRPRPFIMPRP | -0.505
RRIRLRPPRLPRPRPRPNLHPRP | -0.347
RRIRERPPRLPRPRPRPWWAPRP | -0.0718
RRIRKRPPRLPRPRPRPEKNPRP | 0.987
RRIRGRPPRLPRPRPRPHMWPRP | -0.0527
RRIRLRPPRLPRPRPRPIDAPRP | 0.206
RRIRDRPPRLPRPRPRPSYGPRP | -0.0489
RRIRHRPPRLPRPRPRPLTGPRP | -0.00273
RRIRSRPPRLPRPRPRPVQMPRP | 0.0426
RRIRNRPPRLPRPRPRPPQKPRP | 0.544
RRIRYRPPRLPRPRPRPLMRPRP | -0.0447
RRIRIRPPRLPRPRPRPPVTPRP | -0.287
RRIRNRPPRLPRPRPRPMFTPRP | -0.211
RRIRLRPPRLPRPRPRPECPPRP | 0.0712
RRIRPRPPRLPRPRPRPKHAPRP | 0.824
RRIRPRPPRLPRPRPRPLDAPRP | 0.131
RRIRWRPPRLPRPRPRPLHKPRP | 0.0164
RRIRLRPPRLPRPRPRPAGSPRP | 0.268
RRIRKRPPRLPRPRPRPYWCPRP | -0.485

Sequence | shrunken log2 fold change
RRIRYRPPRLPRPRPRPCFSPRP | -0.594
RRIRVRPPRLPRPRPRPLIMPRP | -0.502
RRIRMRPPRLPRPRPRPEIVPRP | 0.574
RRIRYRPPRLPRPRPRPSKCPRP | -0.00419
RRIRERPPRLPRPRPRPKRIPRP | 0.103
RRIRRRPPRLPRPRPRPTAWPRP | 0.288
RRIRIRPPRLPRPRPRPAFRPRP | 2.17
RRIRLRPPRLPRPRPRPNKRPRP | -0.121
RRIRMRPPRLPRPRPRPSQEPRP | 0.226
RRIRLRPPRLPRPRPRPWFTPRP | -0.509
RRIRIRPPRLPRPRPRPMRWPRP | -0.0141
RRIRYRPPRLPRPRPRPNLRPRP | -0.341
RRIRGRPPRLPRPRPRPQEKPRP | 0.0562
RRIRHRPPRLPRPRPRPQGVPRP | -0.00445
RRIRCRPPRLPRPRPRPVGGPRP | 0.273
RRIRARPPRLPRPRPRPVRDPRP | 0.315
RRIRWRPPRLPRPRPRPQNIPRP | -0.882
RRIRFRPPRLPRPRPRPGVTPRP | 0.0815
RRIRERPPRLPRPRPRPAFPPRP | 0.295
RRIRCRPPRLPRPRPRPFNNPRP | -0.701
RRIRMRPPRLPRPRPRPSKHPRP | 0.159
RRIRPRPPRLPRPRPRPTFEPRP | 0.035
RRIRQRPPRLPRPRPRPITFPRP | -0.11
RRIRNRPPRLPRPRPRPWFSPRP | -0.796
RRIRWRPPRLPRPRPRPYYLPRP | -0.843
